In patent US20130210709A1 (ANCHOR THERAPEUTICS, published 2013):
Ends that are not written are not given here. * marks the point of attachment. Palmitoyl = CCCCCCCCCCCCCCCC(=O)*

B1: CXCR4 i2 loop compound 80 (peptide)
peptide: Palmitoyl-HATNSQRPRKLLA-NH2
SMILES: CCCCCCCCCCCCCCCC(=O)N[C@@H](Cc1c[nH]cn1)C(=O)N[C@@H](C)C(=O)N[C@H](C(=O)N[C@@H](CC(N)=O)C(=O)N[C@@H](CO)C(=O)N[C@@H](CCC(N)=O)C(=O)N[C@@H](CCCNC(=N)N)C(=O)N1CCC[C@H]1C(=O)N[C@@H](CCCNC(=N)N)C(=O)N[C@@H](CCCCN)C(=O)N[C@@H](CC(C)C)C(=O)N[C@@H](CC(C)C)C(=O)N[C@@H](C)C(N)=O)[C@@H](C)O
B2: CXCR4 i2 loop compound 79 (peptide)
peptide: Palmitoyl-HATNSQRPRKL-NH2
SMILES: CCCCCCCCCCCCCCCC(=O)N[C@@H](Cc1c[nH]cn1)C(=O)N[C@@H](C)C(=O)N[C@H](C(=O)N[C@@H](CC(N)=O)C(=O)N[C@@H](CO)C(=O)N[C@@H](CCC(N)=O)C(=O)N[C@@H](CCCNC(=N)N)C(=O)N1CCC[C@H]1C(=O)N[C@@H](CCCNC(=N)N)C(=O)N[C@@H](CCCCN)C(=O)N[C@@H](CC(C)C)C(N)=O)[C@@H](C)O
B3: CXCR4 i2 loop compound 78 (peptide)
peptide: Palmitoyl-VHATNSQRPRKLLA-NH2
SMILES: CCCCCCCCCCCCCCCC(=O)N[C@H](C(=O)N[C@@H](Cc1c[nH]cn1)C(=O)N[C@@H](C)C(=O)N[C@H](C(=O)N[C@@H](CC(N)=O)C(=O)N[C@@H](CO)C(=O)N[C@@H](CCC(N)=O)C(=O)N[C@@H](CCCNC(=N)N)C(=O)N1CCC[C@H]1C(=O)N[C@@H](CCCNC(=N)N)C(=O)N[C@@H](CCCCN)C(=O)N[C@@H](CC(C)C)C(=O)N[C@@H](CC(C)C)C(=O)N[C@@H](C)C(N)=O)[C@@H](C)O)C(C)C
B4: CXCR4 i2 loop compound 76 (peptide)
peptide: DRYLAIVHATNSQRPRKLL-NH2
modifications: not fully specified (N-terminus); also: second lipid on tether backbone (C31H62NC(O)- tether)

Target: CXCR4 receptor (human, UniProt P61073 1-352)
Test: cell-based or functional assay

CXCR4 receptor, sequence (P61073 whole entry): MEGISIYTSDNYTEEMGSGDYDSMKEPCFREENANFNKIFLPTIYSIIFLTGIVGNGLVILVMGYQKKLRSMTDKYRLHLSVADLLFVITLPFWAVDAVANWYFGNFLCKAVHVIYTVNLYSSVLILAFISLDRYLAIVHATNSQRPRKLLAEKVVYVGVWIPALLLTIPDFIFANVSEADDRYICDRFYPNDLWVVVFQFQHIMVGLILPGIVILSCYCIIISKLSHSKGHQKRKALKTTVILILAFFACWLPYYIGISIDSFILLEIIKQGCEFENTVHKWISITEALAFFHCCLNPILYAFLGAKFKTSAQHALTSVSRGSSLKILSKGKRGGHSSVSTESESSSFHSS

Row | Binder | AUC (% of vehicle), chemotaxis, SUPB-15, 1.0 uM | Max (% of vehicle), chemotaxis, SUPB-15, 1.0 uM | Peak Ratio, chemotaxis, SUPB-15, 1.0 uM
1 | B1 | 102 % of vehicle | 69 % of vehicle | 0.2
2 | B2 | 109 % of vehicle | 110 % of vehicle | 0.2
3 | B3 | 71.8 % of vehicle | 72.3 % of vehicle | 0.2
4 | B4 | – | – | 1
